# According to IntAct's records for PubMed 31515488:
# B1: Protein LDOC1 (Homo sapiens), O95751 (parent)
# chain: MVDELVLLLHALLMRHRALSIENSQLMEQLRLLVCERASLLRQVRPPSCPVPFPETFNGESSRLPEFIVQTASYMLVNENRFCNDAMKVAFLISLLTGEAEEWVVPYIEMDSPILGDYRAFLDEMKQCFGWDDDEDDDDEEEEDDY
# partner: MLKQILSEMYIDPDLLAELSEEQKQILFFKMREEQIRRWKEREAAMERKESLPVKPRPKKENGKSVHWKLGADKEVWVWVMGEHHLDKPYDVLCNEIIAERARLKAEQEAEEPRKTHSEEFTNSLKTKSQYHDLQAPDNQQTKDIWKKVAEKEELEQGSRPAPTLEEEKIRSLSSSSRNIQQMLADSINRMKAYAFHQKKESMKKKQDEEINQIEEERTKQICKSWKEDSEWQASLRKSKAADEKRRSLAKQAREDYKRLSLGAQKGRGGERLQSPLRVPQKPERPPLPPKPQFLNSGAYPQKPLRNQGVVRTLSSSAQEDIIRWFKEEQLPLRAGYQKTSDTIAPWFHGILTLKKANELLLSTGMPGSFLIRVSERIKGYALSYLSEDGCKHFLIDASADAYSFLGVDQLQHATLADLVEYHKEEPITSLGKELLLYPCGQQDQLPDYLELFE
# B2: Trichoplein keratin filament-binding protein (Homo sapiens), Q9BT92 (parent)
# chain: MALPTLPSYWCSQQRLNQQLARQREQEARLRQQWEQNSRYFRMSDICSSKQAEWSSKTSYQRSMHAYQREKMKEEKRRSLEARREKLRQLMQEEQDLLARELEELRLSMNLQERRIREQHGKLKSAKEEQRKLIAEQLLYEHWKKNNPKLREMELDLHQKHVVNSWEMQKEEKKQQEATAEQENKRYENEYERARREALERMKAEEERRQLEDKLQAEALLQQMEELKLKEVEATKLKKEQENLLKQRWELERLEEERKQMEAFRQKAELGRFLRHQYNAQLSRRTQQIQEELEADRRILQALLEKEDESQRLHLARREQVMADVAWMKQAIEEQLQLERAREAELQMLLREEAKEMWEKREAEWARERSARDRLMSEVLTGRQQQIQEKIEQNRRAQEESLKHREQLIRNLEEVRELARREKEESEKLKSARKQELEAQVAERRLQAWEADQQEEEEEEEARRVEQLSDALLQQEAETMAEQGYRPKPYGHPKIAWN
# partner: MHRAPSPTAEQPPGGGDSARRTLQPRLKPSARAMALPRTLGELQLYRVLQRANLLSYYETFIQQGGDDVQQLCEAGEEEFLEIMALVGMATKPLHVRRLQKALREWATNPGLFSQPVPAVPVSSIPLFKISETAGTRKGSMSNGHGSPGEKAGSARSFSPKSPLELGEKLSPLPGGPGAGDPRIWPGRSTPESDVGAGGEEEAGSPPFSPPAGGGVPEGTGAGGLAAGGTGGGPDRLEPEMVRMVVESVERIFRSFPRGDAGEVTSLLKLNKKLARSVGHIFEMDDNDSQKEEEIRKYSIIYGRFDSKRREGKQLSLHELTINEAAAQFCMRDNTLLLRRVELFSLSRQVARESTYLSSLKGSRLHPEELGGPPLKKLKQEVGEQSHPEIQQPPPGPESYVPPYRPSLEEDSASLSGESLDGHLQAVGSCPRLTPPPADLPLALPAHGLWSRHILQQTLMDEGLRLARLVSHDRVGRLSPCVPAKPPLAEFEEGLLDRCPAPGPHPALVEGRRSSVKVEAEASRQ
# B3: Seipin (Homo sapiens), Q96G97-4 (parent)
# chain: MSTEKVDQKEEAGEKEVCGDQIKGPDKEEEPPAAASHGQGWRPGGRAARNARPEPGARHPALPAMVNDPPVPALLWAQEVGQVLAGRARRLLLQFGVLFCTILLLLWVSVFLYGSFYYSYMPTVSHLSPVHFYYRTDCDSSTTSLCSFPVANVSLTKGGRDRVLMYGQPYRVTLELELPESPVNQDLGMFLVTISCYTRGGRIISTSSRSVMLHYRSDLLQMLDTLVFSSLLLFGFAEQKQLLEVELYADYRENSYVPTTGAIIEIHSKRIQLYGAYLRIHAHFTGLRYLLYNFPMTCAFIGVASNFTFLSVIVLFSYMQWVWGGIWPRHRFSLQVNIRKRDNSRKEVQRRISAHQPGPEGQEESTPQSDVTEDGESPEDPSGTEGQLSEEEKPDQQPLSGEEELEPEASDGSGSWEDAALLTEANLPAPAPASASAPVLETLGSSEPAGGALRQRPTCSSS
# B4: Beta-crystallin A4 (Homo sapiens), P53673 (parent)
# chain: MTLQCTKSAGPWKMVVWDEDGFQGRRHEFTAECPSVLELGFETVRSLKVLSGAWVGFEHAGFQGQQYILERGEYPSWDAWGGNTAYPAERLTSFRPAACANHRDSRLTIFEQENFLGKKGELSDDYPSLQAMGWEGNEVGSFHVHSGAWVCSQFPGYRGFQYVLECDHHSGDYKHFREWGSHAPTFQVQSIRRIQQ
# B5: Asparagine synthetase [glutamine-hydrolyzing] (Homo sapiens), P08243 (parent)
# chain: MCGIWALFGSDDCLSVQCLSAMKIAHRGPDAFRFENVNGYTNCCFGFHRLAVVDPLFGMQPIRVKKYPYLWLCYNGEIYNHKKMQQHFEFEYQTKVDGEIILHLYDKGGIEQTICMLDGVFAFVLLDTANKKVFLGRDTYGVRPLFKAMTEDGFLAVCSEAKGLVTLKHSATPFLKVEPFLPGHYEVLDLKPNGKVASVEMVKYHHCRDVPLHALYDNVEKLFPGFEIETVKNNLRILFNNAVKKRLMTDRRIGCLLSGGLDSSLVAATLLKQLKEAQVQYPLQTFAIGMEDSPDLLAARKVADHIGSEHYEVLFNSEEGIQALDEVIFSLETYDITTVRASVGMYLISKYIRKNTDSVVIFSGEGSDELTQGYIYFHKAPSPEKAEEESERLLRELYLFDVLRADRTTAAHGLELRVPFLDHRFSSYYLSLPPEMRIPKNGIEKHLLRETFEDSNLIPKEILWRPKEAFSDGITSVKNSWFKILQEYVEHQVDDAMMANAAQKFPFNTPKTKEGYYYRQVFERHYPGRADWLSHYWMPKWINATDPSARTLTHYKSAVKA
# partner: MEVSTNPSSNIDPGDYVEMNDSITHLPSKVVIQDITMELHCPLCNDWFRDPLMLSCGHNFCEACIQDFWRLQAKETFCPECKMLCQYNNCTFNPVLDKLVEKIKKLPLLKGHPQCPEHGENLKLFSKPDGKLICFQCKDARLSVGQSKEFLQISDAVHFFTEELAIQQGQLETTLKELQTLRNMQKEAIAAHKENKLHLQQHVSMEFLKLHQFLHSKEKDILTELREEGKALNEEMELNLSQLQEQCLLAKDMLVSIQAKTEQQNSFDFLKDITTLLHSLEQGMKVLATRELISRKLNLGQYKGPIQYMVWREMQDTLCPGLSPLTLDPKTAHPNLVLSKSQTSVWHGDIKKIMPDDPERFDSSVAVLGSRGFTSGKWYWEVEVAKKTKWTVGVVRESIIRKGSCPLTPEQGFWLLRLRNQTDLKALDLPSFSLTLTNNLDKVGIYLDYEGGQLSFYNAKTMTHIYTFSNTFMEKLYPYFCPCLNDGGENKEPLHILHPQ
# B6: Low-density lipoprotein receptor class A domain-containing protein 1 (Homo sapiens), Q5T700 (parent)
# chain: MNKVFPQGENGYTAAESKAHPGGEAGGGHLCCSRRGACLSASLLLLLATVAALIALVTILGLPSCTPGAQACITLTNRTGFLCHDQRSCIPASGVCDGVRTCTHGEDEDESLCRDVPQSLPHFLVAHCGDPASWIYSDQKCDGTNNCGDCSDELSPVTVCPPCGPGWWRCPSTFFKYCDCIPRHLCRDHVQHCSDWSDEYACPGP
# partner: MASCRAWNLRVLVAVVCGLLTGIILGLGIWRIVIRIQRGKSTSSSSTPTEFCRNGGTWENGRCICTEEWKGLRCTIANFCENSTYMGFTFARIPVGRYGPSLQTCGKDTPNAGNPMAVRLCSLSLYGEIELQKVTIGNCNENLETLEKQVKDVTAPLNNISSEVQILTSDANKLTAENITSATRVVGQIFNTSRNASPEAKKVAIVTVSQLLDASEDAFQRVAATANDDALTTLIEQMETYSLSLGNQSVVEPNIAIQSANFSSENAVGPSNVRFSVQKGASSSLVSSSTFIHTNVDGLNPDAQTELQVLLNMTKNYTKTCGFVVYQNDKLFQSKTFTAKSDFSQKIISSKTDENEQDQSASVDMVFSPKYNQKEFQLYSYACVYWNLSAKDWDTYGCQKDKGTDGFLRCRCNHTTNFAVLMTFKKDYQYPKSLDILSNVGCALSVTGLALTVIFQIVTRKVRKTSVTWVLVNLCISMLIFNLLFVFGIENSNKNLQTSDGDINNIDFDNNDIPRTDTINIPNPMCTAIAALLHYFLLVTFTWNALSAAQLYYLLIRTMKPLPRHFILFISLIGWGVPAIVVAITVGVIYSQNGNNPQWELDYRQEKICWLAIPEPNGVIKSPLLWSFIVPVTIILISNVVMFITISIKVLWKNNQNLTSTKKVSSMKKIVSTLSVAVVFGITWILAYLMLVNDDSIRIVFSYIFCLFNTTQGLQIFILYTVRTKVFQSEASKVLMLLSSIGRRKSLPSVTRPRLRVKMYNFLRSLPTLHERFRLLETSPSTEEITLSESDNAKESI
# B7: Caspase-2 (Homo sapiens), P42575 (parent)
# chain: MAAPSAGSWSTFQHKELMAADRGRRILGVCGMHPHHQETLKKNRVVLAKQLLLSELLEHLLEKDIITLEMRELIQAKVGSFSQNVELLNLLPKRGPQAFDAFCEALRETKQGHLEDMLLTTLSGLQHVLPPLSCDYDLSLPFPVCESCPLYKKLRLSTDTVEHSLDNKDGPVCLQVKPCTPEFYQTHFQLAYRLQSRPRGLALVLSNVHFTGEKELEFRSGGDVDHSTLVTLFKLLGYDVHVLCDQTAQEMQEKLQNFAQLPAHRVTDSCIVALLSHGVEGAIYGVDGKLLQLQEVFQLFDNANCPSLQNKPKMFFIQACRGDETDRGVDQQDGKNHAGSPGCEESDAGKEKLPKMRLPTRSDMICGYACLKGTAAMRNTKRGSWYIEALAQVFSERACDMHVADMLVKVNALIKDREGYAPGTEFHRCKEMSEYCSTLCRHLYLFPGHPPT
# Variants of: B1
# Settings: with sh24a_human SH2D4A
row,Variant,effect of a mutation on the interaction
1,L12H,disrupting interaction strength

# Variants of: B2
# Settings: with nab2_human NAB2, Q15742
row,Variant,effect of a mutation on the interaction
1,K127R,with no effect

# Variants of: B3
# Settings: with bscl2_human BSCL2, Q96G97
row,Variant,effect of a mutation on the interaction
1,D20E,with no effect

# Variants of: B3
# Settings: with tmm19_human TMEM19, Q96HH6
# Sequence of tmm19_human TMEM19, Q96HH6 (Q96HH6 whole entry): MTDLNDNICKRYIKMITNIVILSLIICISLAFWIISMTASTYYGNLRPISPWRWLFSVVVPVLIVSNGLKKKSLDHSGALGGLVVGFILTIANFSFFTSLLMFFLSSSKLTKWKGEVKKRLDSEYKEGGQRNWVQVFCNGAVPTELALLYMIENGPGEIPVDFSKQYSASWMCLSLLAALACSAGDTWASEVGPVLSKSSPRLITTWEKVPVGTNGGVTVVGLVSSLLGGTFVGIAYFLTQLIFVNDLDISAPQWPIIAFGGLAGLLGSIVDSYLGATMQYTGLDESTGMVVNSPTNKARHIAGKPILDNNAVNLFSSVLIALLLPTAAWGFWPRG
row,Variant,effect of a mutation on the interaction
1,D20E,with no effect

# Variants of: B4
# Settings: with cep76_human CEP76, Q8TAP6
# Sequence of cep76_human CEP76, Q8TAP6 (Q8TAP6 whole entry): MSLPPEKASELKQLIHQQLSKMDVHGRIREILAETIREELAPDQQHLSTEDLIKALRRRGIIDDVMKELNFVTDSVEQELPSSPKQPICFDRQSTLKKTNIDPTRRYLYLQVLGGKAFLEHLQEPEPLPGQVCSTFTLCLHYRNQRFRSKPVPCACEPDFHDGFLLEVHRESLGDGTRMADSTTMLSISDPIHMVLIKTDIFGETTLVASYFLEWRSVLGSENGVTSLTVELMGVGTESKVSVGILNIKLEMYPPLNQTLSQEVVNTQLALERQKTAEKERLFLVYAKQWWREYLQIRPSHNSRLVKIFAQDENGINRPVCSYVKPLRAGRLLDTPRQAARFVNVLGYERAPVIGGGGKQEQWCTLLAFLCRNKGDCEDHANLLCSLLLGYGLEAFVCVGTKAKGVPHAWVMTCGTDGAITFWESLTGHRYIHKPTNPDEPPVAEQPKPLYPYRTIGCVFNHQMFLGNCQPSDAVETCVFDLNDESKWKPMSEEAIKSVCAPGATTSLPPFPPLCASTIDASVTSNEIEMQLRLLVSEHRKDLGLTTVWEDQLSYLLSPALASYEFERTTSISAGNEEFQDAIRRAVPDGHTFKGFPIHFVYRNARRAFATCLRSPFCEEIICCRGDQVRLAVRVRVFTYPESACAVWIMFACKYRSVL
row,Variant,effect of a mutation on the interaction
1,R103C,with no effect

# Variants of: B5
# Settings: with tri69_human TRIM69, Q86WT6
row,Variant,effect of a mutation on the interaction
1,A277T,with no effect

# Variants of: B6
# Settings: with agrg7_human ADGRG7, Q96K78
row,Variant,effect of a mutation on the interaction
1,E108K,with no effect

# Variants of: B7
# Settings: with cradd_human CRADD
row,Variant,effect of a mutation on the interaction
1,R265G,with no effect
2,V29E,with no effect
3,R155H,with no effect
4,E388K,with no effect
